B1: GAL4 activation domain fusion to SV40 (other)
chain: PTYGTDEWEQWWNAFNEENLFCSEEMPSSDDEATADSQHSTPPKKKRKVEDPKDFPSELLSFLSHAVFSNRTLACFAIYTTKEKAALLYKKIMEKYSVTFISRHNSYNHNILFFLTPHRHRVSAINNYAQKLCTFSFLICKGVNKEYLMYSALTRDPFSVIEESLPGGLKEHDFNPEEAEETKQVSWKLVTEYAMETKCDDVLLLLGMYLEFQYSFEMCLKCIKKEQPSHYKYHEKHYANAAIFADSKNQKTICQQAVDTVLAKKRVDSLQLTREQMLTNRFNDLLDRMDIMFGSTGSADIEEWMAGVAWLHCLLPKMDSVVYDFLKCMVYNIPKKRYWLFKGPIDSGKTTLAAALLELCGGKALNVNLPLDRLNFELGVAIDQFLVVFEDVKGTGGESRDLPSGQGINNLDNLRDYLDGSVKVNLEKKHLNKRTQIFPPGIVTMNEYSVPKTLQARFVKQIDFRPKDYLKHCLERSEFLLEKRIIQSGIALLLMLIWYRPVAEFAQSIQSRIVEWKERLDKEFSLSVYQKMKFNVAMGIGVLDWLRNSDDDDEDSQENADKNEDGGEKNMEDSGHETGIDSQSQGSFQAPQSSQSVHDHNQPYHICRGFTCFKKPPTPPPEPET
notes: Two-hybrid control
B2: GAL4 DNA-binding domain fusion to Drosophila MAD (other, UniProt P04386 1-147, looked up)
chain: MKLLSSIEQACDICRLKKLKCSKEKPKCAKCLKNNWECRYSPKTKRSPLTRAHLTEVESRLERLEQLFLLIFPREDLDMILKMDSLQDIKALLTGLFVQDNVNKDAVTDRLASVETDMPLTLRQHRISATSSSEESSNKGQRQLTVSMDTDDVESNTSSAMSTLGSLFSFTSPAVKKLLGWKQGDEEEKWAEKAVDSLVKKLKKRKGAIEELERALSCPGQPSKCVTIPRSLDGRLQVSHRKGLPHVIYCRVWRWPDLQSHHELKPLELCQYPFSAKQKEVCINPYHYKRVESPVLPPVLVPRHSEFAPGHSMLQFNHVAEPSMPHNVSYSNSGFNSHSLSTSNTSVGSPSSVNSNPNSPYDSLAGTPPPAYSPSEDGNSNNPNDGGQLLDAQMGDVAQVSYSEPAFWASIAYYELNCRVGEVFHCNNNSVIVDGFTNPSNNSDRCCLGQLSNVNRNSTIENTRRHIGKGVHLYYVTGEVYAECLSDSAIFVQSRNCNYHHGFHPSTVCKIPPGCSLKIFNNQEFAQLLSQSVNNGFEAVYELTKMCTIRMSFVKGWGAEYHRQDVTSTPCWIEIHLHGPLQWLDKVLTQMGSPHNAISSVS
notes: Yeast two-hybrid bait; also called Dros; MAD; MAD bait protein
B3: GAL4 DNA-binding domain fusion to rchd534 (other, UniProt P04386 1-147, looked up)
chain: MKLLSSIEQACDICRLKKLKCSKEKPKCAKCLKNNWECRYSPKTKRSPLTRAHLTEVESRLERLEQLFLLIFPREDLDMILKMDSLQDIKALLTGLFVQDNVNKDAVTDRLASVETDMPLTLRQHRISATSSSEESSNKGQRQLTVSMSRMGKPIETQKSPPPPYSRLSPRDEYKPLDLSDSTLSYTETEATNSLITAPGEFSDASMSPDATKPSHWCSVAYWEHRTRVGRLYAVYDQAVSIFYDLPQGSGFCLGQLNLEQRSESVRRTRSKIGFGILLSKEPDGVWAYNRGEHPIFVNSPTLDAPGGRALVVRKVPPGYSIKVFDFERSGLQHAPEPDAADGPYDPNSVRISFAKGWGPCYSRQFITSCPCWLEILLNNPR
notes: Yeast two-hybrid bait; also called rchd534 bait protein

Tests used:
Test in all cases: yeast two-hybrid mating assay (HIS3 and lacZ reporters)
[1] = target: T1, GAL4 DNA-binding domain fusion to DPC4 (UniProt P04386 1-147; Q13485 1-552, limits assumed)
T1 construct: Yeast two-hybrid bait; also called DPC4 bait protein
Excerpt: (§1) Yeast expression plasmids encoding the GAL4 DNA-binding domain either alone or fused in frame to fchd540, rchd534, Drosophilia MAD, DPC4, or p53 were transformed into MATa two-hybrid screening strain HF7c. Yeast expression plasmnids encoding the GAL4 transcriptional activation domain alone and GAL4 activation domain fusions to rchd534 and SV40 were transformed into MATα two-hybrid screening strain Y1 87. p53 and SV40 interact with each other and should not interact with the experimental proteins. The HF7c transformants were propagated as stripes on semisolid synthetic complete medium lacking L-tryptophan and the Y187 transformants were grown as stripes on semisolid synthetic complete medium lacking L-leucine. Both sets of stripes were replica plated in the form of a grid onto a single rich YPAD plate and the haploid strains of opposite mating types were allowed to mate overnight at 30° C. The yeast strains on the mating plate were then replica plated to a synthetic complete plate lacking L-leucine and L-tryptophan to select for diploids and incubated at 30° C. overnight. Diploid strains on the synthetic complete plate lacking L-leucine and L-tryptophan were replica plated to a synthetic complete plate lacking L-leucine, L-tryptophan, and L-histidine to assay HIS3 expression and a paper filter on a synthetic complete plate lacking L-leucine and L-tryptophan. The next day the paper filter was subjected to the paper filter beta-galactosidase assay to measure expression of the lacZ reporter gene. HIS3 expression was scored after 3 days of growth at 30° C.
(§2) It was confirmed that these rchd534 cDNAs encode proteins that physically interact specifically with fchd540. Yeast expression plasmids encoding the GAL4 DNA-binding domain either alone or fused in frame to fchd540, rchd534, Drosophila MAD, DPC4, and p53 were transformed into MATa two-hybrid screening strain HF7c. Yeast expression plasmids encoding the GAL4 transcriptional activation domain (GAL4 AD) alone and GAL4 activation domain fusions to tchv03a, tchvR4A and SV40 were transformed into MATα two-hybrid screening strain Y1 87. p53 and SV40 interact with each other and should not interact with the experimental proteins. The HF7c transformants were propagated as stripes on semi-solid synthetic complete medium lacking […].

[2] = target: B1
Excerpt: as §1, §2

[3] = target: B2
Excerpt: as §1, §2

[4] = target: B3
Excerpt: as §1, §2

Binder | binding result [1] | binding result [2] | binding result [3] | binding result [4]
B1 | no binding |  |  | 
GAL4 DNA-binding domain-fchd540 fusion (other, UniProt P04386 1-147, looked up, Yeast two-hybrid bait; also called fchd540 bait protein; pGBT9-fchd540) MKLLSSIEQACDICRLKKLKCSKEKPKCAKCLKNNWECRYSPKTKRSPLTRAHLTEVESRLERLEQLFLLIFPREDLDMILKMDSLQDIKALLTGLFVQDNVNKDAVTDRLASVETDMPLTLRQHRISATSSSEESSNKGQRQLTVSMFRTKRSALVRRLWRSRAPGGEDEEEGAGGGGGGGELRGEGATDSRAHGAGGGGPGRAGCCLGKAVRGAKGHHHPHPPAAGAGAAGGAEADLKALTHSVLKKLKERQLELLLQAVESRGGTRTACLLLPGRLDCRLGPGAPAGAQPAQPPSSYSLPLLLCKVFRWPDLRHSSEVKRLCCCESYGKINPELVCCNPHHLSRLCELESPPPPYSRYPMDFLKPTADCPDAVPSSAETGGTNYLAPGGLSDSQLLLEPGDRSHWCVVAYWEEKTRVGRLYCVQEPSLDIFYDLPQGNGFCLGQLNSDNKSQLVQKVRSKIGCGIQLTREVDGVWVYNRSSYPIFIKSATLDNPDSRTLLVHKVFPGFSIKAFDYEKAYSLQRPNDHEFMQQPWTGFTVQISFVKGWGQCYTRQFISSCPCWLEVIFNSR |  | no binding |  | 
B2 |  | no binding |  | 
tchvR4A (GAL4 activation domain fusion to amino acids 25-235 of rchd534) (other, not shown: large carriers, Library clone from the human breast two-hybrid library; also called tchvR4A fish protein) DEYKPLDLSDSTLSYTETEATNSLITAPGEFSDASMSPDATKPSHWCSVAYWEHRTRVGRLYAVYDQAVSIFYDLPQGSGFCLGQLNLEQRSESVRRTRSKIGFGILLSKEPDGVWAYNRGEHPIFVNSPTLDAPGGRALVVRKVPPGYSIKVFDFERSGLQHAPEPDAADGPYDPNSVRISFAKGWGPCYSRQFITSCPCWLEILLNNPR | no binding |  | no binding | no binding
B3 |  | no binding |  | 
tchv03A (GAL4 activation domain fusion to amino acids 17-235 of rchd534) (other, not shown: large carriers, Library clone from the human breast two-hybrid library; also called tchv03A fish protein) PYSRLSPRDEYKPLDLSDSTLSYTETEATNSLITAPGEFSDASMSPDATKPSHWCSVAYWEHRTRVGRLYAVYDQAVSIFYDLPQGSGFCLGQLNLEQRSESVRRTRSKIGFGILLSKEPDGVWAYNRGEHPIFVNSPTLDAPGGRALVVRKVPPGYSIKVFDFERSGLQHAPEPDAADGPYDPNSVRISFAKGWGPCYSRQFITSCPCWLEILLNNPR | no binding |  | no binding | no binding
GAL4 transcriptional activation domain-rchd534 fusion (other, human, UniProt O43541-2 1-235, looked up, not shown: large carriers, Yeast two-hybrid fish; also called rchd534 fish protein; Smad6) MSRMGKPIETQKSPPPPYSRLSPRDEYKPLDLSDSTLSYTETEATNSLITAPGEFSDASMSPDATKPSHWCSVAYWEHRTRVGRLYAVYDQAVSIFYDLPQGSGFCLGQLNLEQRSESVRRTRSKIGFGILLSKEPDGVWAYNRGEHPIFVNSPTLDAPGGRALVVRKVPPGYSIKVFDFERSGLQHAPEPDAADGPYDPNSVRISFAKGWGPCYSRQFITSCPCWLEILLNNPR | no binding |  | no binding | 

Source: patent publication US6359194 (Takeda / Millennium, dated 2002)
